Test results from a protein production outcome set (Wang et al. 2014).

Assay: label from the status in PepcDB records

Sequence	protein production
MRNLRKDIVSRSSVGSIQIHGAKTHNLRDVTVCIPKHALVGVAGVSGSGKTSLVSTLAVGAQQAVSSLFPAFVQARLNTLEPGLVDGLQGLTFTAIVGQKKFSRNARSSVSTASGIAPYLRLLFSRSGSPSAGYSPSYSPNDPRGMCMDCSGLGYVDDIDLQELIAPDRSLNEGAVRFPSFEPGTYRWKRLVCSGLFDPDVPWKELPEASRKLLLHGQGVRLERPLTGYPKHGIFDGIIPRLKASYLEKANAKTTEKEDAALRRIVKRVVCPHCHGQRINEAARASRIEGLNIAEASHLSIDECIAFIKTITDEITEAPRQAVLARLNNMRDIGLGYLSLDRPTDTLSGGEAQRLRLVSLLDAPITDATFVMDEPSSGLHPADIERLLRSLRKLRDSGNTVIIVEHNLQVLAACDHVVELGPGAGDDGGRVLFEGSPRSLTRSDTPTGKALRAGIQLNRRSRPATDVIEVTHARCNNLGDVSVSFPVGALTVVSGVAGSGKSSLASALAQQHPEVTIIDQLPLAASSRSSILTALGLESPIREAFSKISGLTTSWFSANEKGACPLCKGRGTTHVDMAFMDDVQTPCERCGGRKFNETTMAVRLPMGSLNPTIADVLDSGLNQVSELYATQDDVLTVISLLQQVGLGYLTLGRTLNTLSGGELQRIKLVQFLKEHREEQESVLVLDEITTGLHPKDVEQLIQFLRRLSERGATAIAIDHNPGLISQADYNIDLGPGAEAAGGTVVFSGTAQGLADCPESTTGKWLHKLNCSSSGVEQVP	failed
MRNLTFLTRCKPLAASVLALMLLGGAAKSFANNDLPDLGTAAVNTFSLEKEMIYGDAYMRVIRSSAPMLNDPVLSQYLTELGNKLVAHATGVKTPFYFFLLQNDEINAFAFFGGHVAVHTGLFLNADNESELASVLGHEITHVTQRHLARSLEAQQKTGPATVAGLLGAILLTIAVPQAGMAALATTQAMATQSKINYTRLHEKEADRIGMQILVDAGFDPNASAEFFGKLASRYRFTTTPPQMLLTHPLPESRISEARDRAQQYPHRYVPDNLNFQLAKARIQVRFSSFSDDAVLSMFEKQLNKQTYGFKEAALYGKALALFRLKKFDESEKIVDELLKIDDNNLFYIDTKTDLLNERKDYAQAIKLLEAQRNLKPTSQVINANLANIYIEAGEPAKAIPLLEDMIFLDKQNQLPYQLLNLAYKKLGNPGMEYFSNAELMALGANYKGAIDQLNFAYRASEGNQLQLARIEARIRQFKQADREMDALKLEHHHHHH	failed
MRNSKSLKLTIMGIGIALNIIGAFIALNLRLPIYLDSIGTIMVGFVLGPVYGMATGVLGSVVSGITFDIYSLYFAPVQIFTGFFAGYFYEKGLMKGKKLFLSVFVMTLFVSFTGACLTAYIFGGITSSGSSYIIVILNNLGVNPVVSAFITQFLTDYCDKLVAVLIMLQVVVRLPKNILLRVQNN	failed
MRPEHIPNIISTLRIFLVYPVVHLMLAERYTAALALFVVAGVSDAIDGFLAKHYGWQSRLGSYLDPLADKLLLVCCFVAGAWLGLLPVWMAAAVLLRDAVIVTGAIAYYLLLHPFDGQPILASKLNTLLQLAFIVAILFNRGVSELPPFLLDGLLAATLATTIASGAIYVYVWGRNYRLETAQGRR	failed
MRPEIAVLDIQGQYRVYTEFYRADAAENTIILINGSLATTASFAQTVRNLHPQFNVVLFDQPYSGKSKPHNRQERLISKETEAHILLELIEHFQADHVMSFSWGGASTLLALAHQPRYVKKAVVSSFSPVINEPMRDYLDRGCQYLAACDRYQVGNLVNDTIGKHLPSLFKRFNYRHVSSLDSHEYAQMHFHINQVLEHDLERALQGARNINIPVLFINGERDEYTTVEDARQFSKHVGRSQFSVIRDAGHFLDMENKTACENTRNVMLGFLK	failed
MRPGAPGPLWPLPWGALAWAVGFVSSMGSGNPAPGGVCWLQQGQEATCSLVLQTDVTRAECCASGNIDTAWSNLTHPGNKINLLGFLGLVHCLPCKDSCDGVECGPGKACRMLGGRPRCECAPDCSGLPARLQVCGSDGATYRDECELRAARCRGHPDLSVMYRGRCRKSCEHVVCPRPQSCVVDQTGSAHCVVCRAAPCPVPSSPGQELCGNNNVTYISSCHMRQATCFLGRSIGVRHAGSCAGTPEEPPGGESAEEEENFV	failed
MRPLISICMIVKNEAHILRQSLASFRKFTEEIIIVDTGSTDDTKEIAKEFTDFVYDFEWTGNFSDARNFAAKHATGKWILAIDADECLEEESYRKLEKQLKSPIEPIQMAQIISFTGEKGRVTTTNQMARVYKNDGTICFRGVIHEQLEAVDKHAIEAGLAEVKIYHYGYMSEIVEKQDKSDRNLRLLEKEVKNNKNSGFVHFNIGQEMNRLGNKKEALKEFSEAFRLRDNNHYIWAKLSAYHISELLEQEKRYDESLAIIEEAKVIWPNVPEFPLKKANILYVNHQLEDAKEIYKSLLENTAIDYQPIVLYEATNFMPHKMLGTIYLEEKDYTRAMTHFSKAYAENSSDYGVMFQMIMLLSKFHQPKEIFAFMERHNFISSTETGLRLLSMTTQQGYAELSELIVQSLTDVYPPVAEATEVKIATIRNVFPVISESAILFGIKEELIDAADLCLWHYENPQLPIERVMKNSDVGEIYDFIFENGPKISKKRYLFVLERAIALGKGEFADYLLALRNVYHDSINSHIADLFFQYDFADIALDFYNIVDADEVTKQGYINLINYLVDADVLDEALAIAERGIDNFSTDFRFYLWAIKIDTENRANRISEAMDEFPNNRYLAKLLDEVTMLQDTVTNNR	failed
MRPVLVLLHRYVGLATALFLFLAGLTGSLLAFHHEIDEWLNPGFYAVGEGGERLSPGSLVQRVESRYPRQLVWYMEYPEAGGHPALLATVPREAGAKVEHDVFYLDPVSGEEVGKRLWAACCFQPANLVPWVLEFHHNLTLPGNWGLYLMGGVAMFWFLDCFVGAWLTLPRGRPFWSKWTTAWKIKRGNAYRFNFDLHRAGGLWLWLLLAPVALSSVALNLPSQVFKPLVSLFSPIEPSVYEARGRLPREQLGETRLDYDRTFQLASVEAARLGIAEPIGELYYSFEYNFFGAGFGDHDDPMGKSWLFFHGSDGRLLGQEVAGQGSWGERFYRLQYPIHGGRIAGLPGRIAIAALGLAIAGLSLTGVYIWWRKRRARHWNGR	failed
MRPVYFLSDFGLEDPYVAVVKAVLAERAPGPAVVDLAHALPPQDLRRAAYALFEALPYLPEGAVVLAVVDPGVGTARRAVAALGRWTYVGPDNGLFTLAWLLDPPRRAFLLEPPRPRPKAALPGWAPGEATFHGRDVFAPAAAHLALGLPPEGLGPEVPVETLARLPLALTEGPEGEVLTFDRFGNAITTLLRAPVGGFVEVGGRRVPVRRTFGEVPEGAPVAYLGSAGLLEVAVNRGSAREALGLKEGMPVRLL	not failed
MRQAKTDLAEQIFSATDRLMAREGLNQLSMLKLAKEANVAAGTIYLYFKNKDELLEQFAHRVFSMFMATLEKDFDETKPFFEQYRQMWKNIWYFLQENPTILSNLKQYESLPNFKDICKNIKNCRWDLFCHQAQKAGLLAELSEDILFLLSLKTAINLASDAKFIDFDLKPEILESVIERSWRAIQK	not failed
MRQFQRLANDGLKSCPPKSGCPMHILFIGYGKTSQRIAKHLFAQGHQITAVSRHPKPQDFVTHLTQDIHQLNLDQCSPIDWVYVLLAPENSDAQSYKHTYLDSVQPIARALATHPVKRVVVVSSTRVYGQQQAGEIVNDQTIAKPVDQQGAYLLEMEEAWQNAFAEHCTIIRPSGIYGNSISRMVKLAKNTTEYPVIHYSNRIHIEDLARFLAFMTQMPCCQPSYLISDGHPYPLHEIILWFQKQLALPQLVLQSDSVTGKRIVPVNFLTTGFELQAEDCFEIYGNLLRSVDT	failed
MRQVTVGGMRVDLVSEIASLAFDKSWLFANVTDAVIAENRSWLDHRYIEPATGRFILSHHSYLVRAPRWTAIVDTCCGNHKKRPRVPVWNDLNQPYLENMRALGVAPEEVDFVMCTHLHVDHVGWNTRLLDGRWVPTFPNARYLMGREEYRHFEAAHNAAPKSPVNHGSFEDSVLPVVAAGLAEFVETDHRLFEDRDAALRFAPAPGHTAGNMQIHLNGGHDHAVMSGDVIHHPIQCAAPWLSNAADVDPAAAVATRMALLEELADTPSYLLTGHFPAPTAGRVIRHGDTYRFRFED	failed
MRRASQMFDFIGFKEGAMAFLLAFALAGLFTIAFKYVYQWVTPYNEKALIREGNTAAAIALAGALIGYVLPLASALSHTVSLPEFAAWATLAGVIQIAAFTGVRLVALPDVKARIENGEVSVGVYLAGISIAVGLLNAACMTT	failed
MRREKTMDTLIRSIMIKSKRKMDAKVAQFGLTTQQARVLGFLNDNAANEIIQKDLQRIFQTRGASITSLIQGLEKKQLISRKPSIRDGREKVVTLTEEGKRIVDEFNESFPREDDKAKKILSADEYKIFIDLLSKIDDNTELEHHHHHH	not failed
MRREKTMDTLIRSIMIKSKRKMDAKVAQFGLTTQQARVLGFLNDNAANEIIQKDLQRIFQTRGASITSLIQGLEKKQLISRKPSLRDGREKVVTLTKEGKDIVDEFNASFPREDDKAKKILSADEYKTFIELLSKIDDQTD	failed
MRRFGKWLGRVLLAALCAALVIGLWKGEEIKRLMAVNSLFEPDLIVRNFSNMDAAFLHTPVGEAQTPPSALPDGPKMTLPDGTAAWLAARKVTSLVVLSNGQLVHESYHLGTKAEDRRISWSLAKSYISALTGIVLAQGSIASLDDPVTRYAPRLKGGAYDGATVRNVLNMATGVTFDEDYTDYDSDINRMGRVLALGGLMDDFAAGLTQTFARPGSEWQYVSIDTHVLGMVIRAATGRSVVDLMGAHIITPLGLESTPYYLTDGAGVAFALGGLNMTTRDYARFGQMMAQHGAWNGRQIVPKNWVIDSTTASAPTGPDEYGYGYQWWMPRDARPREYMGRGIYGQYLYINEEQGVVVALTAADAAFRDADVQQQNIALFREIADRVQGDANGKR	failed
MRRFLLSAAKILVSAALLYLALRKTDFAALAARIDATSFGWLAAAVAATIFQLFVNAVRWRAIGACCEAPLTTGRSMRYAMIGSFFNQTLPSAIGGDAVRVWLLARAGAGWRAATYSVFVDRATGLIALSAIIFVTLPWTLRLIDNADGRLGLMLLDFAALGAGVVFLTLPFLRFGLLDRIWATRHMRGCSEVALKALSSPKSAVILIATSLIIPILAVVIAWCVARAIESPSSFVQLFELVPPIMLITMIPISIAGWGVREASMGLAFGYAGLNPSDGVAVSLLFGAVYFVVGGIGGLIWIMSAEKAAKGDAPIEVPE	failed
MRRLLVALCLLTVVLGSTSALAQARNQLGPLCTTETTPADKMVDACTKIIALKVFKGEQLATVYFWRAVGWNKKGDYAKVITDATEAIRLQPSQAVYNLRGSAYYDKGDYDIAIADFDDALKLGPPSGIIFHNRGNAWRGKHDYTKAIADYDMSIKADPKSAFSFQNRGISKEALGDLDGALADINQAIRLDPTLPQPLINRTSIWRAKGDLDRAIADGSEAIRLAEKKPPANIMTPPNSVLISGYTHRALAYEAKGDYARARDDYKATLAIVASDAGSKANQATAKVRLSLVSDAAVPIPRDAPSPTTQPTAAPAPQQTGAASAPSPAPAVRGTRMALIIGNGAYAHVKALPNPPNDARAVAKSLRDIGFTVSEGVDLDRAAMQKMTRDFLRDAARAQVAVVYYAGHGVQVDGRNYLIPVDVELKPGTAMTEAMIDMDTIMAGLDDQVRTNILIFDACRNNPMAQQVASAAANRGIEGASGLAAPTSLGAGATLGAGTLIAFATAPGQVALDGDGANSPFSAALSRHIGTLGLEVQQMLTRVRAEVVSTTKNKQVPWSNSSLLGEVYLAEK	failed
MRRPAVTAGPAHVLQRPVKPDLSAILHCVQNCTGCRTVRQARPQRGDQIRVTFLCILSSVFPNDQTDHLRSVRPSGFRYRPRHLNSGLAPLPGTLLEEVSMRNPVLTVTPLALTLILSAAGAQSLQAAQSLYDQGKWQEAATAAAALKTSDGYALAAEATTNGAGLVADSQKKALFAKAQDYAKQAIAADKNNPEAYFELARAQGRLAQFSGILQSLGMAKDMKQNLDTAIKLKPNMASAYVALGLWNANLDSKGAIARSATGASKAQVVPNFEKAIALEANTPIHRVEYANALLLQGNKAGARAQLEKAAGMGADNFWEKRDVATAQAMLAKLK	failed
